# Measurements taken from paper PMC7547085, “Specific and direct modulation of the interaction between adhesion GPCR GPR56/ADGRG1 and tissue transglutaminase 2 using synthetic ligands” (Scientific Reports, 2020).
# B1: mouse full-length GPR56 (GPR56 FL), wild type, on HEK293T cells [mouse] / mouse tissue transglutaminase 2 C-terminal D3D4 domains (mTG2 D3D4) [modified: biotin on the AVI-tag; biotin on the AVI-tag] [mouse] (parent)
# chain 1: TGVAMRIRVGDSMSMGNDFDVFAHIGNDTSETRECRLLLCARTVSYNGVLGPECGTEDINLTLDPYSENSIPLRILYEKYSGCLTESNLIKVRGLLIEPAANSYLLAERDLYLENPEIKIRVLGEPKQNRKLVAEVSLKNPLSDPLYDCIFTVEGAGLTKEQKSVEVSDPVPAGDLVKARVDLFPTDIGLHKLVVNFQCDKLKSVKGYRNVIIGPA
# chain 2: GSPREDFRFCGQRNQTQQSTLHYDQSSEPHIFVWNTEETLTIRAPFLAAPDIPRFFPEPRGLYHFCLYWSRHTGRLHLRYGKHDYLLSSQASRLLCFQKQEQSLKQGAPLIATSVSSWQIPQNTSLPGAPSFIFSFHNAPHKVSHNASVDMCDLKKELQQLSRYLQHPQKAAKRPTAAFISQQLQSLESKLTSVSFLGDTLSFEEDRVNATVWKLPPTAGLEDLHIHSQKEEEQSEVQAYSLLLPRAVFQQTRGRRRDDAKRLLVVDFSSQALFQDKNSSQVLGEKVLGIVVQNTKVTNLSDPVVLTFQHQPQPKNVTLQCVFWVEDPASSSTGSWSSAGCETVSRDTQTSCLCNHLTYFAVLMVSSTEVEATHKHYLTLLSYVGCVISALACVFTIAAYLCSRRKSRDYTIKVHMNLLSAVFLLDVSFLLSEPVALTGSEAACRTSAMFLHFSLLACLSWMGLEGYNLYRLVVEVFGTYVPGYLLKLSIVGWGFPVFLVTLVALVDVNNYGPIILAVRRTPERVTYPSMCWIRDSLVSYVTNLGLFSLVFLFNLAMLATMVVQILRLRPHSQNWPHVLTLLGLSLVLGLPWALVFFSFASGTFQLVILYLFSIITSFQGFLIFLWYWSMRFQAQGGPSPLKNNSDSAKLPISSGSTSSSRI
# Variants of: B1
# Test: flow cytometry on cells
# Conditions: with mouse tissue transglutaminase 2 C-terminal D3D4 domains (mTG2 D3D4) [modified: biotin on the AVI-tag, 5 nM TG2 D3D4 (tetramerized), GPR56 FL constructs expressed on HEK293T cells, n = 3, parent: 1, read off a plot
row,Variant,ratio to parent
1,chain 2 H64A Y68A,0.22
2,chain 2 H64A Y68A R79D,0.2
3,chain 2 H64A,0.64
4,chain 2 H64A S125A,6.6

# The remaining lines, values ahead:
row,ratio to parent,Variant
1,4.1,chain 2 H64A Y68A S125A
2,0.33,chain 2 Y68A
3,0.21,chain 2 L62D
4,8.7,chain 2 S125A
5,0.33,chain 2 L62D S125A
